# Measured values reported in article PMC3222648, “Inotropic Action of the Puberty Hormone Kisspeptin in Rat, Mouse and Human: Cardiovascular Distribution and Characteristics of the Kisspeptin Receptor” (PLoS ONE, 2011).
# “And” between values parts separate entries of the source, which are not always exact repeats. Equal values may be shown once. Read-outs that look alike come from different tables or passages of the source. Bridges are numbered along the chain shown (N, C = ends). Where no end group is shown, it is not given here.
# T1: KP-14 (Homo sapiens, UniProt Q15726, ends and bridges not checked; also: 125I-labelled)
# T1 chain: DLPNYNWNSFGLRF
# B1: Kisspeptin receptor (protein)
# chain: MAAEATLGPNVSWWAPSNASGCPGCGVNASDGPGSAPRPLDAWLVPLFFAALMLLGLVGNSLVIFVICRHKHMQTVTNFYIANLAATDVTFLLCCVPFTALLYPLPTWVLGDFMCKFVNYIQQVSVQATCATLTAMSVDRWYVTVFPLRALHRRTPRLALTVSLSIWVGSAAVSAPVLALHRLSPGPHTYCSEAFPSRALERAFALYNLLALYLLPLLATCACYGAMLRHLGRAAVRPAPTDGALQGQLLAQRAGAVRTKVSRLVAAVVLLFAACWGPIQLFLVLQALGPSGAWHPRSYAAYALKIWAHCMSYSNSALNPLLYAFLGSHFRQAFCRVCPCGPQRQRRPHASAHSDRAAPHSVPHSRAAHPVRVRTPEPGNPVRRSPSVQDEHTAPL
# Columns and labels:
# [1] = molecular target: T2, kisspeptin receptor (Homo sapiens, UniProt Q969F8); test: Inotropic activity in human paced atrial strips
# T2 construct: cryostat-cut sections of human (15 µm) or rat (10 µm) heart; from tissue; host or cells: human right atria (control, dilated cardiomyopathy, ischaemic heart disease), cryostat sections
# Method: (§1) Paired rat or mouse atria, or 4 mm strips of human atrial appendage, were mounted in 10 ml organ baths containing oxygenated Krebs solution at 37°C as described previously. […] Experiments were terminated by the addition of 6.7 mM CaCl2 (final bath concentration 8.95 mM) and responses expressed as a % of this CaCl2 maximum. Radioligand binding study data were analyzed using the iterative, non-linear curve fitting programs EBDA and LIGAND in the KELL package (Biosoft, Cambridge, UK). Pooled KD, BMAX and Hill slopes (nH) were expressed as mean±SEM and normalized to protein concentrations. […] Where appropriate, values were compared by one-way analysis of variance (ANOVA). In all cases P<0.05 was considered statistically significant and n-values were the number of animals or patients from which data were obtained.
# [2] = molecular target: T3, kisspeptin receptor (Rattus norvegicus, UniProt Q924U1); test: Inotropic activity in rat paced paired atria; set-up: Paired rat or mouse atria; from tissue; host or cells: rat paired atria; settings: read-out: EMAX (maximum positive inotropic response)
# Method: as §1
# [3] = test system: endothelium-denuded rat aortic rings; test: Vasoconstrictor activity in endothelium-denuded rat aorta; settings: mean ± SEM, ET-1 n = 7, KP-10 tissues from 4 animals, KP-54 tissues from 3 animals
# Method: Rat thoracic aorta was cleaned of connective tissue and cut into 4 mm rings and the endothelial layer removed by gentle rubbing. Tissues were set to a basal tension at which the maximum response to 100 mM KCl was generated and subsequent responses to kisspeptins were expressed as % of this KCl response. Aortic rings were then contracted with 10 µM phenylephrine and 1 µM ACh was added; a reduction in the phenylephrine response of <10% was taken as evidence of removal of endothelium. […] Experiments were terminated by the addition of 100 mM KCl and agonist responses were expressed as a % of this KCl maximum.
# Radioligand binding study data were analyzed using the iterative, non-linear curve fitting programs EBDA and LIGAND in the KELL package (Biosoft, Cambridge, UK). Pooled KD, BMAX and Hill slopes (nH) were expressed as mean±SEM and normalized to protein concentrations. In vitro pharmacology data agonist responses were expressed as %CaCl2 response in the paced atrial tissues and %KCl in the vasoconstrictor studies and data were fitted to a four parameter logistic equation using an iterative curve-fitting program (FigSys, Biosoft, Cambridge, UK) to obtain values for potency (pD2: the negative logarithm to the base 10 of the EC50) and maximum response (EMAX: %CaCl2 or %KCl, respectively) expressed as mean±SEM. Where appropriate, values were compared by one-way analysis of variance (ANOVA). In all cases P<0.05 was considered statistically significant and n-values were the number of animals or patients from which data were obtained.
# [4] = test system: kisspeptin receptor; settings: ref [3]; cited from earlier work
# Source text: Kisspeptin, or KP-54, is a member of a larger group of peptides, the RF amides, named after their shared C-terminal amino acids. RF amides have wide ranging roles in reproduction, feeding, blood pressure regulation and pain modulation with kisspeptins most closely implicated in reproduction and energy balance, [23]–[27]. KP-54 is cleaved from a single precursor, encoded by the KISS1 gene, and smaller fragments of kisspeptin have been identified that are cleaved from KP-54 by unidentified proteases.
# [5] = molecular target: T3, kisspeptin receptor; test: [^125I]KP-14 saturation binding, rat heart sections
# Method: (§2) [^125I]KP-14 binding was detected using a gamma counter to measure disintegrations per minute (dpm) and total protein content was calculated using the Biorad 96-well microtiter plate system. Radioligand binding study data were analyzed using the iterative, non-linear curve fitting programs EBDA and LIGAND in the KELL package (Biosoft, Cambridge, UK). Pooled KD, BMAX and Hill slopes (nH) were expressed as mean±SEM and normalized to protein concentrations. […] Where appropriate, values were compared by one-way analysis of variance (ANOVA). In all cases P<0.05 was considered statistically significant and n-values were the number of animals or patients from which data were obtained.
# [6] = molecular target: T2, kisspeptin receptor; test: [^125I]KP-14 saturation binding, human right atria sections; settings: for BMAX (receptor density) / nH (Hill coefficient): mean ± SEM, n = 3
# Method: as §2
# [7] = molecular target: T3, kisspeptin receptor; test: [^125I]KP-14 receptor autoradiography, rat cardiovascular tissue sections; assay type: binding; settings: for [^125I]KP-14 specific binding: 0.2 nM [^125I]KP-14, 2 h, pH 7.4, non-specific: 1 µM KP-10, mean ± SEM
# Method: (§3) For receptor autoradiography, cryostat-cut sections of human (15 µm) or rat (10 µm) heart were pre-incubated with phosphate binding buffer (mM: NaH2PO4, 50; NaCl, 100; EDTA, 5; MgCl2, 5; protease inhibitor cocktail, 1; pH 7.4) before incubation for 2 h with 0.2 nM [^125I]KP-14 [31]. […] Equilibrium was broken by washing in 50 mM Tris-HCl buffer, pH 7.4, 4°C before air-drying and apposition to radiation-sensitive film (Kodak Biomax MR) and determination of specific binding by computer-assisted densitometry using the Quantimet 970 system (Leica Microsystems, Bucks, UK).
# [8] = molecular target: T2, kisspeptin receptor; test: [^125I]KP-14 receptor autoradiography, human cardiovascular tissue sections; assay type: binding; settings: for [^125I]KP-14 specific binding: 0.2 nM [^125I]KP-14, 2 h, mean ± SEM
# Method: as §3
# [9] = cited from earlier work
# Source text: Our discovery that kisspeptins are positive inotropic agents in human and rodent heart is the first report of such activity. […] Activation of these signaling pathways would be consistent with function as both an inotropic a ...
# [10] = test system: native human tissue; settings: ref [40]; cited from earlier work
# [11] = test system: human heart; settings: ref [39]; cited from earlier work
# Source text: The RF-amide peptide family, which also includes prolactin releasing peptide, are known to have roles in cardiovascular regulation, both centrally and peripherally, [35]. However, to date mRNA studies of kisspeptin receptor distribution in whole heart samples have reported low but varying mRNA expression by northern blot, expression was not detected by PCR [3], [4], [32] except by Sawyer and colleagues, who were also able to detect mRNA encoding murine kisspeptin, albeit at very low copy number. We now report for the first time, the expression of kisspeptin a ...
# [12] = molecular target: T1, KP-14; test: saturation radioligand binding, heart sections
# [13] = human right atria, dilated cardiomyopathy (DCM)
# [14] = human right atria, ischaemic heart disease (IHD)
# T2 sequence (Q969F8 whole entry): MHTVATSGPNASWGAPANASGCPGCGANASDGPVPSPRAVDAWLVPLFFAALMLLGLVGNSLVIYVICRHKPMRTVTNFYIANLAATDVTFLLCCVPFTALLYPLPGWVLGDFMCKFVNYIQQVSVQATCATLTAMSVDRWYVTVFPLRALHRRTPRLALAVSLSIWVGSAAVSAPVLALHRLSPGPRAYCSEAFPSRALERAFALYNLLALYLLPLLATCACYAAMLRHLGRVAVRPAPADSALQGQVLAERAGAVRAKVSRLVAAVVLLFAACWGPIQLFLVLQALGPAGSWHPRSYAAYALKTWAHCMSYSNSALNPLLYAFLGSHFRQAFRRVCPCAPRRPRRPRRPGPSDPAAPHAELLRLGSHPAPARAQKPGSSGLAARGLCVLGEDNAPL
molecule,measurement,setting,value
CC(C)C[C@H](NC(=O)CNC(=O)[C@H](Cc1ccccc1)NC(=O)[C@H](CO)NC(=O)[C@H](CC(N)=O)NC(=O)[C@H](Cc1c[nH]c2ccccc12)NC(=O)[C@H](CC(N)=O)NC(=O)[C@@H](N)Cc1ccc(O)cc1)C(=O)N[C@@H](CCCNC(=N)N)C(=O)N[C@@H](Cc1ccccc1)C(N)=O [KP-10],EC50,[1],0.102 nM
same,Emax,"[1]; % of CaCl2 maximum (8.95 mM final), human atrial strips, mean ± SEM, n = 5, read-out: EMAX (maximum positive inotropic response)",59 ± 10%
same,Emax,[2],31 ± 5%
"ET-1: ET-1 (human) from Peptide Institute, control vasoconstrictor (CSCSSLMDKECVYFCHLDIIW; disulfide 1-15, 3-11; ends not checked; UniProt P05305 53-73, looked up)",EMAX (maximum vasoconstrictor response),"[3]; % of 100 mM KCl maximum, endothelium-denuded rat aorta",99±1 % KCl
same,pD2 (vasoconstriction),"[3]; endothelium-denuded rat thoracic aortic rings, KP-10, KP-54 10^−12–3×10^−9 M, ET-1 10^−10–3×10^−7 M",8.13±0.11
"KP-13: smaller fragment of kisspeptin cleaved from KP-54 (LPNYNWNSFGLRF; ends and bridges not checked; UniProt Q15726 109-121, looked up)",biological activity of fragment,[4],retain biological activity
"KP-14: smaller fragment of kisspeptin cleaved from KP-54; custom synthesised by Severn Biotech (DLPNYNWNSFGLRF-NH2; ends and bridges not checked; UniProt Q15726 108-121, looked up)",biological activity of fragment,[4],retain biological activity
"[^125I]KP-14: radioligand (2000 Ci/mmol) prepared from unlabelled KP-14 by direct iodination using the chloramine-T method (DLPNYNWNSFGLRF; not fully specified; ends and bridges not checked; also: 125I radiolabel, site not given here; UniProt Q15726 108-121, looked up)",Hill slopes (in words),[5],close to unity
same,BMAX,"[5]; mean ± SEM, n = 6",11 ± 2 fmol/mg
same,BMAX (receptor density),[6]; control human right atria,8±5 fmol mg^−1 protein and 8.0±4.8 fmol mg^−1 protein
same,nH (Hill coefficient),[6]; control human right atria,0.82±0.10
same,Hill slopes (in words),[6]; human right atria,close to unity
same,difference in receptor density or binding affinity,"[6]; human right atria, control vs DCM vs IHD",No significant difference in receptor density or binding affinity
same,BMAX (receptor density),[6]; [13],10.2±3.4 fmol mg^−1 protein
same,nH (Hill coefficient),[6]; [13],1.00±0.02
same,BMAX (receptor density),[6]; [14],13.5±7.0 fmol mg^−1 protein
same,nH (Hill coefficient),[6]; [14],0.94±0.03
same,[^125I]KP-14 specific binding,"[7]; rat aorta, n = 3",21±2 amol mm^−2
same,[^125I]KP-14 specific binding,"[7]; rat heart, n = 5",29±10 amol mm^−2
same,specific binding of [^125I]KP-14 (in words),"[7]; rat myocardium, rat aorta smooth muscle",observed in all regions of human and rat myocardium
same,[^125I]KP-14 specific binding,"[8]; human aorta, pH 7.4, n = 6",214±46 amol mm^−2
same,[^125I]KP-14 specific binding,"[8]; human apex, pH 7.4, n = 4",27±6 amol mm^−2
same,[^125I]KP-14 specific binding,"[8]; human atrial appendage, pH 7.4, n = 4",51±15 amol mm^−2
same,[^125I]KP-14 specific binding,"[8]; human interventricular septum, pH 7.4, n = 3",29±10 amol mm^−2
same,[^125I]KP-14 specific binding,"[8]; human left atria, phosphate binding buffer pH 7.4, non-specific: 10 µM KP-14, n = 3",59±16 amol mm^−2
same,[^125I]KP-14 specific binding,"[8]; human left ventricle, pH 7.4, n = 3",34±8 amol mm^−2
same,specific binding of [^125I]KP-14 (in words),"[8]; human myocardium, all regions, smooth muscle of human aorta and small coronary resistance vessels",observed in all regions of human and rat myocardium
same,[^125I]KP-14 specific binding,"[8]; human right atria, pH 7.4, n = 3",36±7 amol mm^−2
same,[^125I]KP-14 specific binding,"[8]; human right ventricle, pH 7.4, n = 3",31±7 amol mm^−2
same,[^125I]KP-14 specific binding,"[8]; human small resistance vessel, pH 7.4, n = 5",4±3 amol mm^−2
apelin,pD2 (inotropic effect),[9]; ref [44],9.9
same,BMAX,[10],3.1 fmol/mg
endothelin,pD2 (inotropic effect),[9]; ref [43],8.9
"urotensin-II: vasoactive peptide and potent inotrope in human heart (ETPDCFWKYCV; ends and bridges not checked; cysteine pairing not given here; UniProt O95399 114-124, looked up)",inotropic activity (in words),[11],potent inotrope in human heart
B1,Kd,[12],0.44 nM
